In patent US20140087995A1 (published 2014):
Numbered stars: 1 amine (or outer) side, 2 acyl side, 3 side chain; on linkers, the order of the positions; unused ones are H or OH. Bridge positions count the residues as written; N and C are the ends. Side chains are listed from the residue outwards. Ends that are not written are not given here. * marks the point of attachment. C20 diacid = O=C(O)CCCCCCCCCCCCCCCCCCC(=O)*; γGlu = O=C(O)[C@H](CCC(=O)[*:2])N[*:1]

T1: human calcitonin receptor (human, UniProt P30988 25-474)
T1 construct: whole, on cells; Membranes of BHK cells stably transfected with the human calcitonin receptor (Assay VII); also called hCTR; hCT
T1 sequence (looked up): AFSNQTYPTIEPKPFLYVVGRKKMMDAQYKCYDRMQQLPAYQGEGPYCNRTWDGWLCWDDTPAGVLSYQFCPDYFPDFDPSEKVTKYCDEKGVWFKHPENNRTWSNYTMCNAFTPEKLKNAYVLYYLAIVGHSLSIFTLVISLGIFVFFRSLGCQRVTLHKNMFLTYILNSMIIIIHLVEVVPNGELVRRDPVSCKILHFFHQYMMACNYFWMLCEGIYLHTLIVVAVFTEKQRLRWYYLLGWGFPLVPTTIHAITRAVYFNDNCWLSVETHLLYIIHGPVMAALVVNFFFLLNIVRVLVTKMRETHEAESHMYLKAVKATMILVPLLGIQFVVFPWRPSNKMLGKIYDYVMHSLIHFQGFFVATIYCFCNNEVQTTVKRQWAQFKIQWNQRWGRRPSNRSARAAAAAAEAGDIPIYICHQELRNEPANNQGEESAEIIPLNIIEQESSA

B1: N^ε1-[(4S)-4-carboxy-4-[[(4S)-4-carboxy-4-(19-carboxynonadecanoylamino)butanoyl]amino]butanoyl]-[Glu14,Arg17,Pro21,Pro27,Pro34,Arg35]-h-amylin (peptide)
peptide: K([γGlu-γGlu-C20 diacid])CNTATCATQRLAEFLRHSSPNFGAIPSSTNVGPRTY-NH2
modifications: disulfide 2-7; N-terminus assumed
SMILES: CC[C@H](C)[C@H](NC(=O)[C@H](C)NC(=O)CNC(=O)[C@H](Cc1ccccc1)NC(=O)[C@H](CC(N)=O)NC(=O)[C@@H]1CCCN1C(=O)[C@H](CO)NC(=O)[C@H](CO)NC(=O)[C@H](Cc1c[nH]cn1)NC(=O)[C@H](CCCNC(=N)N)NC(=O)[C@H](CC(C)C)NC(=O)[C@H](Cc1ccccc1)NC(=O)[C@H](CCC(=O)O)NC(=O)[C@H](C)NC(=O)[C@H](CC(C)C)NC(=O)[C@H](CCCNC(=N)N)NC(=O)[C@H](CCC(N)=O)NC(=O)[C@@H](NC(=O)[C@H](C)NC(=O)[C@@H]1CSSC[C@H](NC(=O)[C@@H](N)CCCCNC(=O)CC[C@H](NC(=O)CC[C@H](NC(=O)CCCCCCCCCCCCCCCCCCC(=O)O)C(=O)O)C(=O)O)C(=O)N[C@@H](CC(N)=O)C(=O)N[C@@H]([C@@H](C)O)C(=O)N[C@@H](C)C(=O)N[C@@H]([C@@H](C)O)C(=O)N1)[C@@H](C)O)C(=O)N1CCC[C@H]1C(=O)N[C@@H](CO)C(=O)N[C@@H](CO)C(=O)N[C@H](C(=O)N[C@@H](CC(N)=O)C(=O)N[C@H](C(=O)NCC(=O)N1CCC[C@H]1C(=O)N[C@@H](CCCNC(=N)N)C(=O)N[C@H](C(=O)N[C@@H](Cc1ccc(O)cc1)C(N)=O)[C@@H](C)O)C(C)C)[C@@H](C)O
notes: also called compound 110
B2: N^ε1-[(4S)-4-carboxy-4-[[(4S)-4-carboxy-4-(19-carboxynonadecanoylamino)butanoyl]amino]butanoyl]-[Glu14,Arg17,Pro21,Pro27,Arg34,Glu35]-h-amylin (peptide)
peptide: K([γGlu-γGlu-C20 diacid])CNTATCATQRLAEFLRHSSPNFGAIPSSTNVGRETY-NH2
modifications: disulfide 2-7; N-terminus assumed
SMILES: CC[C@H](C)[C@H](NC(=O)[C@H](C)NC(=O)CNC(=O)[C@H](Cc1ccccc1)NC(=O)[C@H](CC(N)=O)NC(=O)[C@@H]1CCCN1C(=O)[C@H](CO)NC(=O)[C@H](CO)NC(=O)[C@H](Cc1c[nH]cn1)NC(=O)[C@H](CCCNC(=N)N)NC(=O)[C@H](CC(C)C)NC(=O)[C@H](Cc1ccccc1)NC(=O)[C@H](CCC(=O)O)NC(=O)[C@H](C)NC(=O)[C@H](CC(C)C)NC(=O)[C@H](CCCNC(=N)N)NC(=O)[C@H](CCC(N)=O)NC(=O)[C@@H](NC(=O)[C@H](C)NC(=O)[C@@H]1CSSC[C@H](NC(=O)[C@@H](N)CCCCNC(=O)CC[C@H](NC(=O)CC[C@H](NC(=O)CCCCCCCCCCCCCCCCCCC(=O)O)C(=O)O)C(=O)O)C(=O)N[C@@H](CC(N)=O)C(=O)N[C@@H]([C@@H](C)O)C(=O)N[C@@H](C)C(=O)N[C@@H]([C@@H](C)O)C(=O)N1)[C@@H](C)O)C(=O)N1CCC[C@H]1C(=O)N[C@@H](CO)C(=O)N[C@@H](CO)C(=O)N[C@H](C(=O)N[C@@H](CC(N)=O)C(=O)N[C@H](C(=O)NCC(=O)N[C@@H](CCCNC(=N)N)C(=O)N[C@@H](CCC(=O)O)C(=O)N[C@H](C(=O)N[C@@H](Cc1ccc(O)cc1)C(N)=O)[C@@H](C)O)C(C)C)[C@@H](C)O
B3: N^ε1-[(4S)-4-carboxy-4-[[(4S)-4-carboxy-4-(19-carboxynonadecanoylamino)butanoyl]amino]butanoyl]-[Glu14,Arg17,Pro21,Pro27,Pro34,Glu35,Pro37]-h-amylin (peptide)
peptide: K([γGlu-γGlu-C20 diacid])CNTATCATQRLAEFLRHSSPNFGAIPSSTNVGPETP-NH2
modifications: disulfide 2-7; N-terminus assumed
SMILES: CC[C@H](C)[C@H](NC(=O)[C@H](C)NC(=O)CNC(=O)[C@H](Cc1ccccc1)NC(=O)[C@H](CC(N)=O)NC(=O)[C@@H]1CCCN1C(=O)[C@H](CO)NC(=O)[C@H](CO)NC(=O)[C@H](Cc1c[nH]cn1)NC(=O)[C@H](CCCNC(=N)N)NC(=O)[C@H](CC(C)C)NC(=O)[C@H](Cc1ccccc1)NC(=O)[C@H](CCC(=O)O)NC(=O)[C@H](C)NC(=O)[C@H](CC(C)C)NC(=O)[C@H](CCCNC(=N)N)NC(=O)[C@H](CCC(N)=O)NC(=O)[C@@H](NC(=O)[C@H](C)NC(=O)[C@@H]1CSSC[C@H](NC(=O)[C@@H](N)CCCCNC(=O)CC[C@H](NC(=O)CC[C@H](NC(=O)CCCCCCCCCCCCCCCCCCC(=O)O)C(=O)O)C(=O)O)C(=O)N[C@@H](CC(N)=O)C(=O)N[C@@H]([C@@H](C)O)C(=O)N[C@@H](C)C(=O)N[C@@H]([C@@H](C)O)C(=O)N1)[C@@H](C)O)C(=O)N1CCC[C@H]1C(=O)N[C@@H](CO)C(=O)N[C@@H](CO)C(=O)N[C@H](C(=O)N[C@@H](CC(N)=O)C(=O)N[C@H](C(=O)NCC(=O)N1CCC[C@H]1C(=O)N[C@@H](CCC(=O)O)C(=O)N[C@H](C(=O)N1CCC[C@H]1C(N)=O)[C@@H](C)O)C(C)C)[C@@H](C)O
B4: N^ε1-[(4S)-4-carboxy-4-[[(4S)-4-carboxy-4-(19-carboxynonadecanoylamino)butanoyl]amino]butanoyl]-[Glu14,Arg17,Pro21,Pro27,His34,Glu35]-h-amylin (peptide)
peptide: K([γGlu-γGlu-C20 diacid])CNTATCATQRLAEFLRHSSPNFGAIPSSTNVGHETY-NH2
modifications: disulfide 2-7; N-terminus assumed
SMILES: CC[C@H](C)[C@H](NC(=O)[C@H](C)NC(=O)CNC(=O)[C@H](Cc1ccccc1)NC(=O)[C@H](CC(N)=O)NC(=O)[C@@H]1CCCN1C(=O)[C@H](CO)NC(=O)[C@H](CO)NC(=O)[C@H](Cc1c[nH]cn1)NC(=O)[C@H](CCCNC(=N)N)NC(=O)[C@H](CC(C)C)NC(=O)[C@H](Cc1ccccc1)NC(=O)[C@H](CCC(=O)O)NC(=O)[C@H](C)NC(=O)[C@H](CC(C)C)NC(=O)[C@H](CCCNC(=N)N)NC(=O)[C@H](CCC(N)=O)NC(=O)[C@@H](NC(=O)[C@H](C)NC(=O)[C@@H]1CSSC[C@H](NC(=O)[C@@H](N)CCCCNC(=O)CC[C@H](NC(=O)CC[C@H](NC(=O)CCCCCCCCCCCCCCCCCCC(=O)O)C(=O)O)C(=O)O)C(=O)N[C@@H](CC(N)=O)C(=O)N[C@@H]([C@@H](C)O)C(=O)N[C@@H](C)C(=O)N[C@@H]([C@@H](C)O)C(=O)N1)[C@@H](C)O)C(=O)N1CCC[C@H]1C(=O)N[C@@H](CO)C(=O)N[C@@H](CO)C(=O)N[C@H](C(=O)N[C@@H](CC(N)=O)C(=O)N[C@H](C(=O)NCC(=O)N[C@@H](Cc1c[nH]cn1)C(=O)N[C@@H](CCC(=O)O)C(=O)N[C@H](C(=O)N[C@@H](Cc1ccc(O)cc1)C(N)=O)[C@@H](C)O)C(C)C)[C@@H](C)O

target: T1, human calcitonin receptor; assay: ratio of IC50 at hCTR over IC50 at hAmylin-R (SPA competition assays)
Method in brief: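 Competition binding by SPA uses membrane preparations (35 ng/μL final) in pH 7.4 Hepes buffer with 1 mM CaCl2 and 5 mM MgCl₂. Incubation lasts 120 min at 25° C, and IC₅₀ comes from one-site fitting.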

Ratio hCT/hAmylin binding	Binder
280	K([γGlu-γGlu-C20 diacid])CNTATCATQRLADFLRHSSPNFGAIPSSTNVGPRTY-NH2 (disulfide 2-7, also called compound 130)
53.6	B1
14.7	B2
0.4	B3
27.3	K([γGlu-γGlu-C20 diacid])CNTATCATQRLAEFLRHSSPNFGAIPSSTNVGPHTY-NH2 (disulfide 2-7 (inferred))
49.8	K([γGlu-γGlu-C20 diacid])CNTATCATQRLADFLRHSSPNFGAIPSSTNVGPETY-NH2 (disulfide 2-7)
29.1	B4

target: T1, human calcitonin receptor; assay: SPA competition against 125I-calcitonin, membranes of BHK cells with human calcitonin receptor (Assay VII)
Method in brief: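 BHK hCTR membranes 35 ng/μL + SPA beads 0.05 mg/well; buffer 50 mM Hepes pH 7.4, 1 mM CaCl2, 5 mM MgCl₂, 0.1% OA, 0.02% Tween20. 120 min, 25° C., shaking. Scintillation count; IC50 by one-site binding competition.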

IC50	Binder
127 nM	K([γGlu-γGlu-C20 diacid])CNTATCATQRLADFLRHSSPNFGAIPSSTNVGPRTY-NH2 (disulfide 2-7, also called compound 130)
17.5 nM	B1
14.1 nM	B2
0.226 nM	B3
10.3 nM	K([γGlu-γGlu-C20 diacid])CNTATCATQRLAEFLRHSSPNFGAIPSSTNVGPHTY-NH2 (disulfide 2-7 (inferred))
8.56 nM	K([γGlu-γGlu-C20 diacid])CNTATCATQRLADFLRHSSPNFGAIPSSTNVGPETY-NH2 (disulfide 2-7)
15.2 nM	B4
